The experiment deals with eIF2 trimer (recombinant, not phosphorylated), P05198;P20042;P41091. Description: fluorescence polarisation. The conditions noted are these: chain shown with the change; 2.0 µM eIF2 trimer (highest analyte concentration); fluorescein-labeled R3 420-466 peptide as probe; parent: est. 90; read off a plot.
Sequence of eIF2 trimer (recombinant, not phosphorylated), P05198;P20042;P41091 (chain, as listed by the source, chain 1 of 3): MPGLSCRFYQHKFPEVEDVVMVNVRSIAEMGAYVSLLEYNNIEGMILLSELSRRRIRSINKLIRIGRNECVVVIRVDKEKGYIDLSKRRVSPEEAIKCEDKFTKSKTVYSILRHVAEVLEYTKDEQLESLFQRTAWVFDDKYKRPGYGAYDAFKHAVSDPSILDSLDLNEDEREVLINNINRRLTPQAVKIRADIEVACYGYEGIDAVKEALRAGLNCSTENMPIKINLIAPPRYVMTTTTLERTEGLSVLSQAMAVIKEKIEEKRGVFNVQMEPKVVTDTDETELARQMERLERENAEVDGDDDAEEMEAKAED
Sequence of eIF2 trimer (recombinant, not phosphorylated), P05198;P20042;P41091 (chain, as listed by the source, chain 2 of 3): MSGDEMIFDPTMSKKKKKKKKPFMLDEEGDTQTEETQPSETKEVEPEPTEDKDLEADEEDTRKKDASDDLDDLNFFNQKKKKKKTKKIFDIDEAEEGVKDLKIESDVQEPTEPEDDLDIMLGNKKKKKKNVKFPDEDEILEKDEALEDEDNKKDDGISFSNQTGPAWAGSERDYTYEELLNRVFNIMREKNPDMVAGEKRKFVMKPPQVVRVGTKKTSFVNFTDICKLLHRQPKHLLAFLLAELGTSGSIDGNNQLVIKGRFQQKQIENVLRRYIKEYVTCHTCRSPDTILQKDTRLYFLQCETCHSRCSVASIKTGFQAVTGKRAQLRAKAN
Sequence of eIF2 trimer (recombinant, not phosphorylated), P05198;P20042;P41091 (chain, as listed by the source, chain 3 of 3): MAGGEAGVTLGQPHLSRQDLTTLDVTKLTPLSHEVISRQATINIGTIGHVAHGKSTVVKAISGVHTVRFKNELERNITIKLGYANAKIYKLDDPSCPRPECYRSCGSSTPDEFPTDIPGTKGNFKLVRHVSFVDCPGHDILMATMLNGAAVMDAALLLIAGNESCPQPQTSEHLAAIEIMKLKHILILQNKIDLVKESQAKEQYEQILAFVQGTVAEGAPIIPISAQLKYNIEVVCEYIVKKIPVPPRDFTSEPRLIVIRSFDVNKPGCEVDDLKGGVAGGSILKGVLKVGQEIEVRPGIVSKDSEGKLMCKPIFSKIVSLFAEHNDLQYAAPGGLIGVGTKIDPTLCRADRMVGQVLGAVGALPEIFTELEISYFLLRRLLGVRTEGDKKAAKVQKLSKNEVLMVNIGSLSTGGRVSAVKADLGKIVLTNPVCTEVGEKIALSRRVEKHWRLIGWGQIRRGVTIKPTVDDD

As for ASTPPASAALKAAVYRPGEDTEEEEDEDVDSEDKEDDSEAALGEAES, the response was determined as 27 mP.
